Source: publication PMC7490372, “Structural bases of IMiD selectivity that emerges by 5-hydroxythalidomide” (Nature Communications, 2020)

B1: FLAG-GST-SALL4 (wild type) [human] / biotinylated CRBN (wild type) [modified: biotin (added by BirA during cell-free synthesis); biotin (added by BirA during cell-free synthesis)] [human] (parent)
chain 1: MSRRKQAKPQHINSEEDQGEQQPQQQTPEFADAAPAAPAAGELGAPVNHPGNDEVASEDEATVKRLRREETHVCEKCCAEFFSISEFLEHKKNCTKNPPVLIMNDSEGPVPSEDFSGAVLSHQPTSPGSKDCHRENGGSSEDMKEKPDAESVVYLKTETALPPTPQDISYLAKGKVANTNVTLQALRGTKVAVNQRSADALPAPVPGANSIPWVLEQILCLQQQQLQQIQLTEQIRIQVNMWASHALHSSGAGADTLKTLGSHMSQQVSAAVALLSQKAGSQGLSLDALKQAKLPHANIPSATSSLSPGLAPFTLKPDGTRVLPNVMSRLPSALLPQAPGSVLFQSPFSTVALDTSKKGKGKPPNISAVDVKPKDEAALYKHKCKYCSKVFGTDSSLQIHLRSHTGERPFVCSVCGHRFTTKGNLKVHFHRHPQVKANPQLFAEFQDKVAAGNGIPYALSVPDPIDEPSLSLDSKPVLVTTSVGLPQNLSSGTNPKDLTGGSLPGDLQPGPSPESEGGPTLPGVGPNYNSPRAGGFQGSGTPEPGSETLKLQQLVENIDKATTDPNECLICHRVLSCQSSLKMHYRTHTGERPFQCKICGRAFSTKGNLKTHLGVHRTNTSIKTQHSCPICQKKFTNAVMLQQHIRMHMGGQIPNTPLPENPCDFTGSEPMTVGENGSTGAICHDDVIESIDVEEVSSQEAPSSSSKVPTPLPSIHSASPTLGFAMMASLDAPGKVGPAPFNLQRQGSRENGSVESDGLTNDSSSLMGDQEYQSRSPDILETTSFQALSPANSQAESIKSKSPDAGSKAESSENSRTEMEGRSSLPSTFIRAPPTYVKVEVPGTFVGPSTLSPGMTPLLAAQPRRQAKQHGCTRCGKNFSSASALQIHERTHTGEKPFVCNICGRAFTTKGNLKVHYMTHGANNNSARRGRKLAIENTMALLGTDGKRVSEIFPKEILAPSVNVDPVVWNQYTSMLNGGLAVKTNEISVIQSGGVPTLPVSLGATSVVNNATVSKMDGSQSGISADVEKPSATDGVPKHQFPHFLEENKIAVS
chain 2: MAGEGDQQDAAHNMGNHLPLLPAESEEEDEMEVEDQDSKEAKKPNIINFDTSLPTSHTYLGADMEEFHGRTLHDDDSCQVIPVLPQVMMILIPGQTLPLQLFHPQEVSMVRNLIQKDRTFAVLAYSNVQEREAQFGTTAEIYAYREEQDFGIEIVKVKAIGRQRFKVLELRTQSDGIQQAKVQILPECVLPSTMSAVQLESLNKCQIFPSKPVSREDQCSYKWWQKYQKRKFHCANLTSWPRWLYSLYDAETLMDRIKKQLREWDENLKDDSLPSNPIDFSYRVAACLPIDDVLRIQLLKIGSAIQRLRCELDIMNKCTSLCCKQCQETEITTKNEIFSLSLCGPMAAYVNPHGYVHETLTVYKACNLNLIGRPSTEHSWFPGYAWTVAQCKICASHIGWKFTATKKDMSPQKFWGLTRSALLPTIPDTEDEISPDKVILCL
B2: FLAG-GST-IKZF1 (wild type) [not stated] / biotinylated CRBN (wild type) [modified: biotin (added by BirA during cell-free synthesis); biotin (added by BirA during cell-free synthesis)] [human] (parent)
chain 1: MDADEGQDMSQVSGKESPPVSDTPDEGDEPMPIPEDLSTTSGGQQSSKSDRVVASNVKVETQSDEENGRACEMNGEECAEDLRMLDASGEKMNGSHRDQGSSALSGVGGIRLPNGKLKCDICGIICIGPNVLMVHKRSHTGERPFQCNQCGASFTQKGNLLRHIKLHSGEKPFKCHLCNYACRRRDALTGHLRTHSVGKPHKCGYCGRSYKQRSSLEEHKERCHNYLESMGLPGTLYPVIKEETNHSEMAEDLCKIGSERSLVLDRLASNVAKRKSSMPQKFLGDKGLSDTPYDSSASYEKENEMMKSHVMDQAINNAINYLGAESLRPLVQTPPGGSEVVPVISPMYQLHKPLAEGTPRSNHSAQDSAVENLLLLSKAKLVPSEREASPSNSCQDSTDTESNNEEQRSGLIYLTNHIAPHARNGLSLKEEHRAYDLLRAASENSQDALRVVSTSGEQMKVYKCEHCRVLFLDHVMYTIHMGCHGFRDPFECNMCGYHSQDRYEFSSHITRGEHRFHMS
chain 2: B1 chain 2

Variants of: B1
Assay: AlphaScreen (AS-based interaction assay)
Settings: with biotinylated CRBN (wild type) [modified: biotin (added by BirA during cell-free synthesis), 5HP, last (highest) point of the titration, Log[5HP (µM)] = 2, signal relative to DMSO = 1, read off a plot

Q: With chain 1 V411I as the variant, how does the response (Relative AS signal) read?
A: 51

Q: chain 1 V411A was tested. Which response (Relative AS signal) did it give?
A: 26

Q: How did the response (Relative AS signal) turn out when chain 1 V411L was run?
A: 14

Q: For chain 1 V411T, which response (Relative AS signal) is on record?
A: 43

Same assay, conditions: with biotinylated CRBN (wild type) [modified: biotin (added by BirA during cell-free synthesis), (S)-5HT, last (highest) point of the titration, Log[(S)-5HT (µM)] = 2, signal relative to DMSO = 1, read off a plot

Q: With chain 1 V411I as the variant, how does the response (Relative AS signal) read?
A: 63

Q: Which response (Relative AS signal) does the source give for chain 1 V411A here?
A: 29

Q: Which response (Relative AS signal) does the source give for chain 1 V411L here?
A: 14

Q: How did the response (Relative AS signal) turn out when chain 1 V411T was run?
A: 47

Same assay, conditions: with biotinylated CRBN (wild type) [modified: biotin (added by BirA during cell-free synthesis), (S)-thalidomide, last (highest) point of the titration, Log[(S)-Thal (µM)] = 2, signal relative to DMSO = 1, read off a plot

Q: chain 1 V411I was tested. Which response (Relative AS signal) did it give?
A: 75

Q: How did the response (Relative AS signal) turn out when chain 1 V411H was run?
A: 20

Q: How did the response (Relative AS signal) turn out when chain 1 V411R was run?
A: 14

Q: chain 1 V411K was tested. Which response (Relative AS signal) did it give?
A: 7

Q: chain 1 V411Q was tested. Which response (Relative AS signal) did it give?
A: 100

Same assay, conditions: with biotinylated CRBN (wild type) [modified: biotin (added by BirA during cell-free synthesis), pomalidomide, last (highest) point of the titration, Log[Pom (µM)] = 2, signal relative to DMSO = 1, read off a plot

Q: How did the response (Relative AS signal) turn out when chain 1 V411I was run?
A: 78

Q: Which response (Relative AS signal) does the source give for chain 1 V411H here?
A: 22

Q: For chain 1 V411A, which response (Relative AS signal) is on record?
A: 52

Q: With chain 1 V411R as the variant, how does the response (Relative AS signal) read?
A: 37

Q: For chain 1 V411K, which response (Relative AS signal) is on record?
A: 8

Q: For chain 1 V411Q, which response (Relative AS signal) is on record?
A: 100

Same assay, conditions: with biotinylated CRBN (wild type) [modified: biotin (added by BirA during cell-free synthesis), (S)-5HT, last (highest) point of the titration, Log[(S)-5HT (µM)] about 2.3, signal relative to DMSO = 1, read off a plot

Q: Which response (Relative AS signal) does the source give for chain 1 V411Q here?
A: 4.5

Q: How did the response (Relative AS signal) turn out when chain 1 V411Q R418S was run?
A: 4.5

Same assay, conditions: with biotinylated CRBN (wild type) [modified: biotin (added by BirA during cell-free synthesis), (S)-thalidomide, last (highest) point of the titration, Log[(S)-Thal (µM)] about 2.3, signal relative to DMSO = 1, read off a plot

Q: Which response (Relative AS signal) does the source give for chain 1 V411Q here?
A: 66

Q: With chain 1 V411Q R418S as the variant, how does the response (Relative AS signal) read?
A: 62

Variants of: B2
Assay: AlphaScreen (AS-based interaction assay)
Settings: with biotinylated CRBN (wild type) [modified: biotin (added by BirA during cell-free synthesis), (S)-5HT, last (highest) point of the titration, Log[(S)-5HT (µM)] about 2.3, signal relative to DMSO = 1, read off a plot

Q: For chain 1 Q146V, which response (Relative AS signal) is on record?
A: 25

Q: With chain 1 Q146V S153R as the variant, how does the response (Relative AS signal) read?
A: 26

Same assay, conditions: with biotinylated CRBN (wild type) [modified: biotin (added by BirA during cell-free synthesis), (S)-thalidomide, last (highest) point of the titration, Log[(S)-Thal (µM)] about 2.3, signal relative to DMSO = 1, read off a plot

Q: chain 1 Q146V was tested. Which response (Relative AS signal) did it give?
A: 28

Q: With chain 1 Q146V S153R as the variant, how does the response (Relative AS signal) read?
A: 14
